{
  "source": "patent US20090010961A1",
  "experiment_in_all_cases": "cell-based or functional assay",
  "key": {"[1]": {"molecular_target": "E protein of wild-type DEN-3 16562 virus (dengue-3 virus, strain 16562) (UniProt P27915)"}, "[2]": {"molecular_target": "E protein of wild-type DEN-1 16007 virus (dengue-1 virus, strain 16007) (UniProt P27909)"}, "[3]": {"molecular_target": "E protein of wild-type DEN-4 1036 virus (dengue-4 virus, strain 1036) (UniProt P09866)"}},
  "data": [
    {"substance": "monoclonal antibody 3H5 (specific for DEN-2 E protein)", "values": [
      {"measurement": "Reciprocal serum dilution-plaque reduction neutralization titers (50% endpoint) (reciprocal dilution)", "setting": "[1]", "result": 40},
      {"measurement": "Reciprocal serum dilution-plaque reduction neutralization titers (50% endpoint) (reciprocal dilution)", "setting": "[2]", "result": 20},
      {"measurement": "Reciprocal serum dilution-plaque reduction neutralization titers (50% endpoint) (reciprocal dilution)", "setting": "[3]", "result": "< 20"}
    ]}
  ]
}
